PMC12111036

What was measured:
[1] = target: Tyrosine kinase receptor B (TrkB) (not stated (human SH-SY5Y or mouse HT22 cells cultured)) (UniProt Q16620); assay: co-IP; control cells without added BDNF; native lysis; IP of 100 μL whole-cell lysate with anti-TrkB or anti-p75 antibody and protein A&G beads at 4 °C; Western blot with anti-BDNF antibody; band intensity in percent of the control WCL band
[2] = target: p75 receptor (not stated (human SH-SY5Y or mouse HT22 cells cultured)) (UniProt P08138); assay: as above
[3] = target: Tyrosine kinase receptor B (TrkB) (not stated (human SH-SY5Y or mouse HT22 cells cultured)) (UniProt Q16620); assay: co-IP; cells incubated 48 h with BDNF 1.0 nM, alone or with Aβ42M/Aβ42O 0.2 μM and/or CA/EGCG 100 μM or IG3/BCP 2.0 μM; native lysis; IP with anti-TrkB or anti-p75 antibody and protein A&G beads at 4 °C; Western blot with anti-BDNF antibody; band intensity in percent of the control WCL band
[4] = target: p75 receptor (not stated (human SH-SY5Y or mouse HT22 cells cultured)) (UniProt P08138); assay: as above
[5] = target: Amyloid-β protein 1–42 monomers (Aβ42M) (human) (UniProt P05067); assay: ELISA; indirect ELISA; Aβ42 species or HSA (2.0 μM) coated on 96-well plates at 4 °C for 12 h, blocked with 5% nonfat dry milk in TBS; BDNF 20 pg/mL added, 37 °C, 24 h; bound BDNF detected with anti-BDNF antibody; binding rate in percent of the BDNF added; also run with CA/EGCG (50 μM) or IG3/BCP (2.0 μM)
[6] = target: Amyloid-β protein 1–42 protofibrils (Aβ42P) (human) (UniProt P05067); assay: as above
[7] = target: Amyloid-β protein 1–42 oligomers (Aβ42O) (human) (UniProt P05067); assay: as above
[8] = target: Amyloid-β protein 1–42 fibrils (Aβ42F) (human) (UniProt P05067); assay: as above

p75 receptor (not stated (human SH-SY5Y or mouse HT22 cells cultured)), sequence (P08138 29-427): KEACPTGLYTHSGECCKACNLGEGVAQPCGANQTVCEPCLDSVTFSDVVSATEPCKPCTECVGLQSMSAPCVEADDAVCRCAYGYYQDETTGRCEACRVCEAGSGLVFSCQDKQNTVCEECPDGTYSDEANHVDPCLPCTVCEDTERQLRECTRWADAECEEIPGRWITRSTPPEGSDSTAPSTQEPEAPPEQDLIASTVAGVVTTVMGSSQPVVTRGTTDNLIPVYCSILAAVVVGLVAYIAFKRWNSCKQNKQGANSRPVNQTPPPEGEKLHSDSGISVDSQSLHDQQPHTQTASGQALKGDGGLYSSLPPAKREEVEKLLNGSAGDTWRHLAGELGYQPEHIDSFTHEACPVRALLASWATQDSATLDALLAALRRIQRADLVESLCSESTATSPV

Row | Substance | BDNF on Co-IP beads, percent of control WCL (no BDNF added) [1] | BDNF on Co-IP beads, percent of control WCL (no BDNF added) [2] | BDNF on Co-IP beads, percent of control WCL (BDNF added) [3] | BDNF on Co-IP beads, percent of control WCL (BDNF with Aβ42M and CA/EGCG) [3] | BDNF on Co-IP beads, percent of control WCL (BDNF with Aβ42M and IG3/BCP) [3] | BDNF on Co-IP beads, percent of control WCL (BDNF with Aβ42M) [3] | BDNF on Co-IP beads, percent of control WCL (BDNF with Aβ42O and CA/EGCG) [3] | BDNF on Co-IP beads, percent of control WCL (BDNF with Aβ42O and IG3/BCP) [3] | BDNF on Co-IP beads, percent of control WCL (BDNF with Aβ42O) [3] | BDNF on Co-IP beads, percent of control WCL (BDNF added) [4] | BDNF on Co-IP beads, percent of control WCL (BDNF with Aβ42M and CA/EGCG) [4] | BDNF on Co-IP beads, percent of control WCL (BDNF with Aβ42M and IG3/BCP) [4] | BDNF on Co-IP beads, percent of control WCL (BDNF with Aβ42M) [4] | BDNF on Co-IP beads, percent of control WCL (BDNF with Aβ42O and CA/EGCG) [4] | BDNF on Co-IP beads, percent of control WCL (BDNF with Aβ42O and IG3/BCP) [4] | BDNF on Co-IP beads, percent of control WCL (BDNF with Aβ42O) [4] | binding rate [5] | binding rate [6] | binding rate [7] | binding rate [8]
1 | Endogenous BDNF of the control cells (ligand) | 44.1% | 31.9% | – | – | – | – | – | – | – | – | – | – | – | – | – | – | – | – | – | –
2 | Human brain-derived neurotrophic factor (BDNF) (ligand) | – | – | 85% | 89.3% | 92% | 88.3% | 72.2% | 73.4% | 58.1% | 70% | 73.4% | 83.2% | 71.9% | 62.1% | 61.7% | 64.3% | > 10% | < 5% | > 10% | < 5%
